Source: IntAct's records for PubMed 17805295

Biological target: Cdh23, Q99PF4-1
Sequence (Q99PF4 whole entry): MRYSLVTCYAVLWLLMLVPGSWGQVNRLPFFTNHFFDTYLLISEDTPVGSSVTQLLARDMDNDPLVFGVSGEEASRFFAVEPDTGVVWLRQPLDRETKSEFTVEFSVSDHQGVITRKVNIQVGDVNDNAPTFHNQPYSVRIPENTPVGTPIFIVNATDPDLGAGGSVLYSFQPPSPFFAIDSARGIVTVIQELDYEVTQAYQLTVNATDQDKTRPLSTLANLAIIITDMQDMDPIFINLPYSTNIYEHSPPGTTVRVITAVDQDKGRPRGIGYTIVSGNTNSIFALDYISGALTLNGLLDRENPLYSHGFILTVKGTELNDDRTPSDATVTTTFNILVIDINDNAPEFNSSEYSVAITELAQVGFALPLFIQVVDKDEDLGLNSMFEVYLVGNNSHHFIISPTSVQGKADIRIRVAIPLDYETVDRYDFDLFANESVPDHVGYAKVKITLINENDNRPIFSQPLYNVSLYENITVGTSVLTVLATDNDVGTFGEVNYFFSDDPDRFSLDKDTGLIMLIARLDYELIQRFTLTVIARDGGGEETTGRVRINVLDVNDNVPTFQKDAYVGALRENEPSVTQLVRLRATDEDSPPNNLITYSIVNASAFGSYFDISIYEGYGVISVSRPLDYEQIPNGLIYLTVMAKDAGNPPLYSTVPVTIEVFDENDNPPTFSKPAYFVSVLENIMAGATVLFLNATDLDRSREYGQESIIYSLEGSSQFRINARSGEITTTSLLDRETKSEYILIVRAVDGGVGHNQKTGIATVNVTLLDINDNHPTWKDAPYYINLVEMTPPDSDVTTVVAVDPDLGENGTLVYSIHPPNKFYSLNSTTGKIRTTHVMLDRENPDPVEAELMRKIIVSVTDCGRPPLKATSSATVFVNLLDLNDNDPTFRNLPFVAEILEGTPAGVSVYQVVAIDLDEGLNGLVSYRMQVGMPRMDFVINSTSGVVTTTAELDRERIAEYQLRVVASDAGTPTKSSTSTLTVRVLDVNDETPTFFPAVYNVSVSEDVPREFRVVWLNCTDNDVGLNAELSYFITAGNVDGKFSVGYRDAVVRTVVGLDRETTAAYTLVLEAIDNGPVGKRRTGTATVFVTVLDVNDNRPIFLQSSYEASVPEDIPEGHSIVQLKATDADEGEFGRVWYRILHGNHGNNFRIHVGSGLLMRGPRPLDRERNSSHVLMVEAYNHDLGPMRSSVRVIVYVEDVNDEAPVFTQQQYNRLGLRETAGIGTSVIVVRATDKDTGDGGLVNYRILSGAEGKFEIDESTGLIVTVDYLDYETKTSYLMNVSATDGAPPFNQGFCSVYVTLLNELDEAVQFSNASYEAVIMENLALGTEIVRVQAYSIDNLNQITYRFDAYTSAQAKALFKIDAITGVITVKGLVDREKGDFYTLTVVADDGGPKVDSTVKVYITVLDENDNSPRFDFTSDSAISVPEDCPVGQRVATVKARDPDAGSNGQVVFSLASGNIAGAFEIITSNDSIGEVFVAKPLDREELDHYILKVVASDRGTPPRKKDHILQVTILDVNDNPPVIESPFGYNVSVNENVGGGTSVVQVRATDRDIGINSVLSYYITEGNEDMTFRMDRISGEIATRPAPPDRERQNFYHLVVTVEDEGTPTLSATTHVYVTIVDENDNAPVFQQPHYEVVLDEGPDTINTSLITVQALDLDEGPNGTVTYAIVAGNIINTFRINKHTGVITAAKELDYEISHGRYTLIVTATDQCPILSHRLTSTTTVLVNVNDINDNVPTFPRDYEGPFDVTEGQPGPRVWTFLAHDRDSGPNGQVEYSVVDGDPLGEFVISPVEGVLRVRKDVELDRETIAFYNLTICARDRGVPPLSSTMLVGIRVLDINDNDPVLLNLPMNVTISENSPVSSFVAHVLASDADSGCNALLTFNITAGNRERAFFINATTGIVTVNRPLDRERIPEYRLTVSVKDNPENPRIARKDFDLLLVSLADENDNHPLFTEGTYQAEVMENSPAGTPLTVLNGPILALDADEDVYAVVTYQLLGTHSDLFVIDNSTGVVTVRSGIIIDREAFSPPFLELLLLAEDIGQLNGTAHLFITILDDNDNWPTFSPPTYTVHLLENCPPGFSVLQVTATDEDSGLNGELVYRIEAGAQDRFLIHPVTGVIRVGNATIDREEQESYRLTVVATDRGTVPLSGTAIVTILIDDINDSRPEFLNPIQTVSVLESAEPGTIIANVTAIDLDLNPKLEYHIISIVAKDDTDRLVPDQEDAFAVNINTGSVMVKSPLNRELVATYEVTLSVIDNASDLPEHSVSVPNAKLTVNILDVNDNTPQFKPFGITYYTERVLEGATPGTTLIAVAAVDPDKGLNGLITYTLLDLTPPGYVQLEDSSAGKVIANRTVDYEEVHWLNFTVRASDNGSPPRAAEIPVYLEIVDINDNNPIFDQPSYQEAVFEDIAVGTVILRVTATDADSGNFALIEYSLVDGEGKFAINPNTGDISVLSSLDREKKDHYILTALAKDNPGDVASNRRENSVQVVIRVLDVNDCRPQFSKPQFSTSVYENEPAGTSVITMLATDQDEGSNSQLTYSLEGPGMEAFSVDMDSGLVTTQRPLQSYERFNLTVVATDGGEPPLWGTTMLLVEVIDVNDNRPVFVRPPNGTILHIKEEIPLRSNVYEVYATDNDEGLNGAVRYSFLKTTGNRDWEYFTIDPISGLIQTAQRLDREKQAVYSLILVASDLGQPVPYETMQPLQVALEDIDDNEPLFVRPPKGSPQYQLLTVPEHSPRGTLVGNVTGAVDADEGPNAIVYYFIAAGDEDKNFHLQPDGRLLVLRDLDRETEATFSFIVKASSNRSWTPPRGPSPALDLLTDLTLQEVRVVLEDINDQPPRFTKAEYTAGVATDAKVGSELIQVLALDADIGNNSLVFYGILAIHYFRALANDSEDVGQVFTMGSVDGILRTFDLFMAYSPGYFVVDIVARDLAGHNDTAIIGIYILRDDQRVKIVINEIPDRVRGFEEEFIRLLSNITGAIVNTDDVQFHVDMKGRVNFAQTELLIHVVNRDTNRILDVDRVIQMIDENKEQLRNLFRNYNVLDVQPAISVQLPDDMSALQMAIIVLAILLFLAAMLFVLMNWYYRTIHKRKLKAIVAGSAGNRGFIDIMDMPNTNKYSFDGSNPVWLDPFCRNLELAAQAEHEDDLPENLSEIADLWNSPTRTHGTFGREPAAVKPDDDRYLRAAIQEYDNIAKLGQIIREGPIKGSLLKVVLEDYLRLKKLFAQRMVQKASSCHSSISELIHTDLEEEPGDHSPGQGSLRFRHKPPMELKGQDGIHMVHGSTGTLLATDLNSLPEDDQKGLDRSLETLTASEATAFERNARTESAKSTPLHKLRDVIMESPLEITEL

effect of a mutation on the interaction: disrupting interaction strength
Substance: Protocadherin-15 (Mus musculus), Q99PJ1 R139G
